Ends that are not written are not given here.
B1: polypeptide obtained by Example 1: Purified S5 fraction polypeptide from small granules of horseshoe crab hemocytes; 79 amino acids, about 8,200 by SDS-PAGE (protein)
chain: NPLIPAIYIGATVGPSVWAYLVALVGAAAVTAANIRRASSDNHSCAGNRGWCRSKCFRHEYVDTYYSAVCGRYFCCRSR

How the values were obtained:
Assay type in all cases: cell-based
Escherichia coli [1] = experiment: Antimicrobial activity, growth inhibition at a single concentration (colony count); details: 50 μl of 40 μg/ml polypeptide added to 450 μl of 10,000 CFU/ml suspension in 10 mM phosphate buffer pH 7.0; 37° C. 1 hr
Protocol: (§1) Escherichia coli was suspended in 10 mM phosphate buffer, pH 7.0, at a concentration of 10,000 CFU/ml and 450 μl of the suspension was mixed with 50 μl each of polypeptide fraction T3 (polypeptide of [Formula 4]) (SEQ ID NO:3), T6 (polypeptide of [Formula 5]) (SEQ ID NO:4), and a polypeptide obtained by Example 1 each having a concentration of 40 μg/ml, and as a control 10 mM phosphate buffer, pH 7.0. The mixtures were incubated at 37° C. for 1 hr. Then, 100 μl of incubated mixture was inoculated in an agar medium, cultured at 37° C. for 12 hrs. and the number of colonies were counted with naked eye.

Staphylococcus aureus [2] = experiment: as above; details: 50 μl of 40 μg/ml polypeptide added to 450 μl of 5,000 CFU/ml suspension in 10 mM phosphate buffer pH 7.0; 37° C. 1 hr
Protocol: as §1, with “In addition, Staphylococcsii aureus” for “Escherichia coli”, “5,000” for “10,000”, “4]),” for “4]) (SEQ ID NO:3),”

S. minnesota Re = experiment: Determination of antimicrobial activity (colony count after 1 hr incubation in hypotonic buffer); details: 10 mM phosphate buffer pH 7.0 (hypotonic), 37° C. 1 hr, then agar culture 12 hrs
Protocol: (§2) Various microorganisms shown in Table 3 were suspended in 10 mM phosphate buffer, pH 7.0 (hypotonic solution). In 900 μl of 5,000-10,000 CFU/ml suspension, 100 μl of 2-fold serial diluted polypeptide solution at a concentration of 20 μg/ml obtained by Example 1 was added and incubated at 37° C. for 1 hr. Then, 100 μl of incubated mixture was inoculated in an agar medium, cultured at 37° C. for 12 hrs. and the number of colonies was counted with naked eye (see Infections and Immunity, 42, 10-14 (1983)). CFU means colony forming unit.

[3] = system: Salmonella typhimurium LT2(S); experiment: as above; details: 10 mM phosphate buffer pH 7.0 (hypotonic), 37° C. 1 hr, then agar culture 12 hrs
Protocol: as §2

Escherichia coli [4] = experiment: as above; details: 10 mM phosphate buffer pH 7.0 (hypotonic), 37° C. 1 hr, then agar culture 12 hrs
Protocol: as §2

Klebsiella pneumoniae = experiment: as above; details: 10 mM phosphate buffer pH 7.0 (hypotonic), 37° C. 1 hr, then agar culture 12 hrs
Protocol: as §2

Candida albicans = experiment: as above; details: 10 mM phosphate buffer pH 7.0 (hypotonic), 37° C. 1 hr, then agar culture 12 hrs
Protocol: as §2

Staphylococcus aureus [5] = experiment: as above; details: 10 mM phosphate buffer pH 7.0 (hypotonic), 37° C. 1 hr, then agar culture 12 hrs
Protocol: as §2

| Molecule | inhibited the growth of Escherichia coli at a rate of (Escherichia coli [1]) | inhibited the growth of Staphylococcus aureus at a rate of (Staphylococcus aureus [2]) | IC50 (μg/ml) (hypotension) (S. minnesota Re) [µg/mL] | IC50 (μg/ml) (hypotension) [3] [µg/mL] | IC50 in hypotonic buffer (Escherichia coli [4]) [mg/L] | IC50 (μg/ml) (hypotension) (Klebsiella pneumoniae) [µg/mL] | IC50 (μg/ml) (hypotension) (Candida albicans) [µg/mL] | IC50 (μg/ml) (hypotension) (Staphylococcus aureus [5]) [µg/mL] |
| --- | --- | --- | --- | --- | --- | --- | --- | --- |
| T3: Trypsin degradation fraction of the Example 1 polypeptide, eluted at 27 min; 42 residues, C-terminal defensin-like part (ASSDNHSCAGNRGWCRSKCFRHEYVDTYYSAVCGRYFCCRSR; not fully specified (bridges); cysteine pairing not given here) | about 90% | about 30% | – | – | – | – | – | – |
| B1 | ≥ 95% | almost completely | < 0.6 | 20 | 2.5 | < 1.3 | 10 to 20 | < 2.5 |
